PMC10950897, “VCF1 is a p97/VCP cofactor promoting recognition of ubiquitylated p97-UFD1-NPL4 substrates” (Nature Communications, 2024)

Key:
[1] = tested on: p97 (WT, truncations, Y143A); test: In vitro binding, StrepTactin pulldown of Strep-HA-VCF1 with purified p97 proteins; design: species or system human
Procedure: (§1) All in vitro binding experiments were performed in EBC or RIPA buffer as indicated. Recombinant Biotin-tagged K48-linked poly-ubiquitin chains (2−7) and K48-linked poly-ubiquitin chains (2−16) were purchased from R&D Systems and Enzo Life Science, respectively. Recombinant proteins were incubated with Strep-Tactin Sepharose (IBA), Glutathione agarose (Gold Biotechnology) or […] Fab-trap agarose (ChromoTek) overnight on an end-over-end rotator at 4 °C, washed six times with EBC or RIPA buffer, and resuspended in 2×Laemmli sample buffer. For p97, VCF1 or p47 pulldowns, antibodies (0.5 µg/sample) were coupled to agarose beads, incubated with recombinant proteins or cell lysates and washed with the indicated buffer. To assess p97-UFD1-NPL4 binding to ubiquitylated proteins in total cell extracts, U2OS cells were lysed in EBC buffer supplemented with protease and phosphatase inhibitors, sonicated and incubated on ice for 10 min. Lysates were cleared by centrifugation for 10 min at 16,100 × g. Cell lysate (40 µg) was added to recombinant proteins in EBC buffer, incubated overnight on the rotator with […] Fab-trap agarose (ChromoTek), and beads were washed six times.

Ub(G76V)-GFP, U2OS cells = test: QIBC of Ub(G76V)-GFP in cells overexpressing FLAG-tagged proteins; assay type: cell-based, human; conditions: FLAG-tagged plasmids, FLAG-positive cells
Procedure: U2OS (catalog no. HTB-96) cells were obtained from ATCC. HEK293-EBNA1-6E cells were a kind gift from Yves Durocher (National Research Council Canada, Montreal, Canada). All mammalian cell lines were cultured under standard conditions at 37 °C and 5% CO2 in DMEM (Thermo) supplemented with 10% FBS (v/v) and penicillin-streptomycin (Thermo). Recombination cloning-compatible U2OS cells were generated using the Flp-In T-Rex Core Kit (Thermo) according to the manufacturer’s instructions and maintained under selection using Blasticidin (Invivogen) and Zeocin (Thermo). To generate cell lines stably expressing GFP-VCF1, U2OS Flp-In T-Rex cells (Thermo) were co-transfected with GFP-VCF1 constructs and pOG44 (Thermo) plasmids, followed by selection with Hygromycin (Invitrogen). Single clones were carefully screened for uniform expression of ectopic GFP-VCF1 at low levels and maintained under selection with Blasticidin and Hygromycin. To induce GFP-VCF1 expression, cells were treated with Doxycycline (DOX) (0.5 µg/ml) for 16 h. U2OS cell lines stably expressing Ub(G76V)-GFP or Ub(G76V)-GFP-20AA were described previously. A U2OS cell line stably expressing Ub(G76V)-GFP-NES was generated under G418 (Invivogen) selection. […]
Mammalian cells grown on coverslips were fixed in formalin buffer (VWR) for 15 min at room temperature (RT). […] Quantitative image-based cytometry (QIBC) was performed as described. […]

p97 ATPase = test: ATPase assay; assay type: biochemical, human; conditions: p97 25 nM; for relative ATPase activity: ATP 375 μM
Procedure: For ATPase assays, 1 ml of 5x assay buffer (250 mM Tris, pH 7.4; 100 mM MgCl2; 5 mM EDTA) was mixed with 3 ml water, 5 μl 0.5 M TCEP and 5 μl 10% Triton X. To 40 ul of this assay buffer, recombinant proteins were added, mixed and incubated for 30 min. Final protein concentrations were as follows: p97 (25 nM), VCF1 (range of 0, 0.025, 1, 10 and 25 nM). The reactions were started by adding 10 μl ATP (final concentration of 375 μM) to the 40 μl reactions in a 96 well plate. After 35 min at room temperature, reactions were stopped by adding 50 μl BIOMOL Green reagent (Enzo Life Sciences). Absorbance at 635 nm was measured after 4 min and the relative ATPase activity calculated. Reactions were performed in duplicates and repeated three times.

ubiquitin (K48-Ub2-16) = test: StrepTactin pulldown of VCF1 with K48-linked ubiquitin chains; ubiquitin interaction alone or in complex with p97; assay type: binding
Procedure: as §1

Substance: VCF1: human FAM104A isoform 1, 186 amino acids (UniProt Q969W3); recombinant Strep-HA-tagged
- p97 domain bound ([1]; full-length and truncated His6-p97 proteins): interacts with the p97 N-domain
- in vitro interaction with p97 ([1]; purified His6-p97 WT, RIPA buffer): readily interacted in vitro
- effect of overexpression on Ub(G76V)-GFP (Ub(G76V)-GFP, U2OS cells): stabilized Ub(G76V)-GFP similar to the effect of elevating NPL4 or p47 expression levels
- relative ATPase activity (p97 ATPase; 0.025 nM, replicate 1): 0.985
- relative ATPase activity (p97 ATPase; 0.025 nM, replicate 2): 0.875
- relative ATPase activity (p97 ATPase; 0.025 nM, replicate 3): 1.031
- relative ATPase activity (p97 ATPase; 1 nM, replicate 1): 1.071
- relative ATPase activity (p97 ATPase; 1 nM, replicate 2): 0.934
- relative ATPase activity (p97 ATPase; 1 nM, replicate 3): 0.99
- relative ATPase activity (p97 ATPase; 10 nM, replicate 1): 1.095
- relative ATPase activity (p97 ATPase; 10 nM, replicate 2): 1.007
- relative ATPase activity (p97 ATPase; 10 nM, replicate 3): 1.066
- effect on p97 ATPase activity (in words) (p97 ATPase): had no impact on the ATPase activity of p97 in vitro
- interaction with ubiquitin (ubiquitin (K48-Ub2-16)): neither in isolation nor in complex with p97 did VCF1 display detectable interaction with ubiquitin
